In article PMC7682656:

Target: His6-tagged NBDY (human)
Experiment: SPR + ITC

Kd: 1000 nM
Substance: purified EDC4 WD40 domain (residues 72-528) (from UniProt Q6P2E9 72-528) (domain or fragment)
